What was measured:
[1] = biological target: T1, human CD39 expressing CHO cells (CHO-huCD39) (Homo sapiens, UniProt P49961); assay: Inhibition of the enzymatic activity of cellular CD39 in CHO-huCD39; type: cell-based; conditions: qualitative
T1 construct: expressed in transfected cells; host or cells: CHO
T1 sequence (P49961 1-510): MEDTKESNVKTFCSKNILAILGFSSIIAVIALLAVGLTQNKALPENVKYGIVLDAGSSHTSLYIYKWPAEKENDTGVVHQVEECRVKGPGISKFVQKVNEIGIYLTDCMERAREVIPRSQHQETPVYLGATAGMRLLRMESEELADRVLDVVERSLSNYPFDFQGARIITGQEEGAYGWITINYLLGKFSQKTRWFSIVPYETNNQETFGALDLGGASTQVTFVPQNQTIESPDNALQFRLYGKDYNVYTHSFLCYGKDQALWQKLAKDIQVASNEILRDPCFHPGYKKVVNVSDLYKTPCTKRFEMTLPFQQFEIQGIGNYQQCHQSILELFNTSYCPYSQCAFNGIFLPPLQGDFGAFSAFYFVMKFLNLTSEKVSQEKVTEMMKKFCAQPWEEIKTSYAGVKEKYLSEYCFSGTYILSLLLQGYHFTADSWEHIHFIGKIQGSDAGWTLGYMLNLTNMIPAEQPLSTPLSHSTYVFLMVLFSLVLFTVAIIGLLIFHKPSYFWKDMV
Experimental: The inhibition of the CD39 enzymatic activity in CD39-expressing cells by antibodies was evaluated using Cell Titer GIo™ (Promega, reference G7571) that allows assessment of ATP hydrolysis through use of a reagent that generates a luminescent signal proportional to the amount of ATP present. The assay was thus designed to permit assessment of the inhibition of ATP hydrolyzed by CD39 in the cell culture supernatant. Briefly, 5×10^4 Ramos human lymphoma cells, 5×10^3 human CD39−, cynomolgus CD39—and mouse CD39− expressing CHO cells, were incubated 1 hour at 37° C. with anti-CD39 antibodies from 30 μg/ml to 5×10^−4 μg/ml. Cells were then incubated with 20 μM ATP for 1 additional hour at 37° C. Plates were centrifuged for 2 min at 400 g and 50 μl cell supernatant are transferred in a luminescence microplate (white wells). 50 μl CellTiter-Glo™ Reagent (CTG) was added to the supernatant and emitted light was quantified after a 5 min incubation in the dark using a Enspire™ luminometer. Anti-CD39 antibody efficacy was determined by comparing emitted light in presence of antibody with ATP alone (maximal light emission) and ATP together with cells (minimal light emission).

[2] = biological target: T2, CHO cells expressing human CD39 (Homo sapiens, UniProt P49961); assay: Antibody titration on CHO-huCD39 by flow cytometry; type: binding; conditions: qualitative
T2 construct: expressed in transfected cells; host or cells: CHO
T2 sequence (P49961 1-510): T1 sequence (P49961 1-510)
Experimental: Antibody I-394 was tested in two repeated experiments for binding to CHO cells expressing human CD39, CHO cells expressing cynomolgus (Macaca fascicularis) CD39, CHO cells expressing murine CD39, and human Ramos lymphoma cells (ATCC™, reference CRL-1596). Cells were incubated with various concentration of unlabeled anti-CD39 antibody from 30 μg/ml to 5×10^−4 μg/ml, for 30 minutes at 4° C. After washes, cells were incubated with Goat anti-mouse H+L labeled secondary antibody for 30 min at 4° C.

[3] = biological target: T3, Human CD39-L1 (NTPDase2, ENTPD2) (Homo sapiens, UniProt Q9Y5L3); assay: ELISA titration on CD39-L1; type: binding
T3 sequence (Q9Y5L3 1-472 isoform Q9Y5L3-2): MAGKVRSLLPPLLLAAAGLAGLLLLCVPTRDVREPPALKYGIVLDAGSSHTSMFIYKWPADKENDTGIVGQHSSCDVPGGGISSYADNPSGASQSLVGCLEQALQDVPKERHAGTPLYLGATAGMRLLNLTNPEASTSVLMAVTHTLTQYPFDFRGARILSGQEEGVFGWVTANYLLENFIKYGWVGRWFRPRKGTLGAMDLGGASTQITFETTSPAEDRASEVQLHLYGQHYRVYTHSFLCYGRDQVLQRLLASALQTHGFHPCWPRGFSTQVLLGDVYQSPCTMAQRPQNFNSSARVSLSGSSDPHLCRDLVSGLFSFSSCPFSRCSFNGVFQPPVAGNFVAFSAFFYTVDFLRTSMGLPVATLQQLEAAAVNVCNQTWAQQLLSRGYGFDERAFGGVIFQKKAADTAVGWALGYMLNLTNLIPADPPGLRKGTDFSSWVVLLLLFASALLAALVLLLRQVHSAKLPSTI
Experimental: (§1) Antibody I-394 was tested for binding to recombinant human CD39 isoforms (Rec-huCD39 isoforms) having amino acid sequences shown below were coated in 96-well plate in PBS 1X at 500 ng/ml or 1 μg/ml at 4° C. overnight. Wells were washed in TBS Tween® 20 (polysorbate 20), and further saturated 2H at RT in TBS Blocking buffer. Dose range concentration of primary antibody was incubated in TBS blocking buffer for 2 h at RT. Wells were washed in TBS Tween® 20 (polysorbate 20). […] Optical density was measured on Enspire™ at OD=450.

[4] = biological target: T4, Human CD39-L2 (NTPDase6, ENTPD6) (Homo sapiens, UniProt O75354, K202E); assay: ELISA titration on CD39-L2; type: binding
T4 sequence (O75354 1-484 K202E): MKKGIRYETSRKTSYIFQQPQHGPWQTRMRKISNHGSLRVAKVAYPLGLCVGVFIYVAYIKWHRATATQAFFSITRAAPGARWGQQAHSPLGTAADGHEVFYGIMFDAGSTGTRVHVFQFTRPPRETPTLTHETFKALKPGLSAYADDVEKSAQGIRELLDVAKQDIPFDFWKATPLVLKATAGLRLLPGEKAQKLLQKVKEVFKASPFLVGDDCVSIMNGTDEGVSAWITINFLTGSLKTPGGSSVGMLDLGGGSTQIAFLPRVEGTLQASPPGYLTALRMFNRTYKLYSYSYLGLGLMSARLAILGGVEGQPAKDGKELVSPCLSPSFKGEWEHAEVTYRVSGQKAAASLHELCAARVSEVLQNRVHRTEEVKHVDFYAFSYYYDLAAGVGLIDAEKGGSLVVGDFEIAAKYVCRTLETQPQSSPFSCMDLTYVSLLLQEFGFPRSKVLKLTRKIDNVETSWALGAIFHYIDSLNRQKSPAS
Experimental: as §1

**Q.** Which results are given for “I-394: anti-CD39 antibody, VH SEQ ID NO: 6, VL SEQ ID NO: 7, human IgG1 Fc with L234A/L235E/G237A/A330S/P331S”?
**A.** blocking CD39 enzymatic activity in CHO-huCD39 [1]: blocks CD39 enzymatic activity; binding to cells expressing human CD39 (CHO-huCD39) [2]: bound; binding to CD39-L1 in ELISA [3]: not to any of the isoforms CD39-L1, -L2, -L3 or -L4; binding to CD39-L2 in ELISA [4]: not to any of the isoforms CD39-L1, -L2, -L3 or -L4

— US12202907B2, “Nucleic acids encoding and methods of producing proteins comprising antibody chains” (Innate Pharma, priority 2018, dated 2025)
